The target in this series is CHD7 full length WT (UniProt Q9P2D1). As to the kind of experiment: single-molecule PIFE/smFRET.
UniProt Q9P2D1, sequence (Q9P2D1 whole entry): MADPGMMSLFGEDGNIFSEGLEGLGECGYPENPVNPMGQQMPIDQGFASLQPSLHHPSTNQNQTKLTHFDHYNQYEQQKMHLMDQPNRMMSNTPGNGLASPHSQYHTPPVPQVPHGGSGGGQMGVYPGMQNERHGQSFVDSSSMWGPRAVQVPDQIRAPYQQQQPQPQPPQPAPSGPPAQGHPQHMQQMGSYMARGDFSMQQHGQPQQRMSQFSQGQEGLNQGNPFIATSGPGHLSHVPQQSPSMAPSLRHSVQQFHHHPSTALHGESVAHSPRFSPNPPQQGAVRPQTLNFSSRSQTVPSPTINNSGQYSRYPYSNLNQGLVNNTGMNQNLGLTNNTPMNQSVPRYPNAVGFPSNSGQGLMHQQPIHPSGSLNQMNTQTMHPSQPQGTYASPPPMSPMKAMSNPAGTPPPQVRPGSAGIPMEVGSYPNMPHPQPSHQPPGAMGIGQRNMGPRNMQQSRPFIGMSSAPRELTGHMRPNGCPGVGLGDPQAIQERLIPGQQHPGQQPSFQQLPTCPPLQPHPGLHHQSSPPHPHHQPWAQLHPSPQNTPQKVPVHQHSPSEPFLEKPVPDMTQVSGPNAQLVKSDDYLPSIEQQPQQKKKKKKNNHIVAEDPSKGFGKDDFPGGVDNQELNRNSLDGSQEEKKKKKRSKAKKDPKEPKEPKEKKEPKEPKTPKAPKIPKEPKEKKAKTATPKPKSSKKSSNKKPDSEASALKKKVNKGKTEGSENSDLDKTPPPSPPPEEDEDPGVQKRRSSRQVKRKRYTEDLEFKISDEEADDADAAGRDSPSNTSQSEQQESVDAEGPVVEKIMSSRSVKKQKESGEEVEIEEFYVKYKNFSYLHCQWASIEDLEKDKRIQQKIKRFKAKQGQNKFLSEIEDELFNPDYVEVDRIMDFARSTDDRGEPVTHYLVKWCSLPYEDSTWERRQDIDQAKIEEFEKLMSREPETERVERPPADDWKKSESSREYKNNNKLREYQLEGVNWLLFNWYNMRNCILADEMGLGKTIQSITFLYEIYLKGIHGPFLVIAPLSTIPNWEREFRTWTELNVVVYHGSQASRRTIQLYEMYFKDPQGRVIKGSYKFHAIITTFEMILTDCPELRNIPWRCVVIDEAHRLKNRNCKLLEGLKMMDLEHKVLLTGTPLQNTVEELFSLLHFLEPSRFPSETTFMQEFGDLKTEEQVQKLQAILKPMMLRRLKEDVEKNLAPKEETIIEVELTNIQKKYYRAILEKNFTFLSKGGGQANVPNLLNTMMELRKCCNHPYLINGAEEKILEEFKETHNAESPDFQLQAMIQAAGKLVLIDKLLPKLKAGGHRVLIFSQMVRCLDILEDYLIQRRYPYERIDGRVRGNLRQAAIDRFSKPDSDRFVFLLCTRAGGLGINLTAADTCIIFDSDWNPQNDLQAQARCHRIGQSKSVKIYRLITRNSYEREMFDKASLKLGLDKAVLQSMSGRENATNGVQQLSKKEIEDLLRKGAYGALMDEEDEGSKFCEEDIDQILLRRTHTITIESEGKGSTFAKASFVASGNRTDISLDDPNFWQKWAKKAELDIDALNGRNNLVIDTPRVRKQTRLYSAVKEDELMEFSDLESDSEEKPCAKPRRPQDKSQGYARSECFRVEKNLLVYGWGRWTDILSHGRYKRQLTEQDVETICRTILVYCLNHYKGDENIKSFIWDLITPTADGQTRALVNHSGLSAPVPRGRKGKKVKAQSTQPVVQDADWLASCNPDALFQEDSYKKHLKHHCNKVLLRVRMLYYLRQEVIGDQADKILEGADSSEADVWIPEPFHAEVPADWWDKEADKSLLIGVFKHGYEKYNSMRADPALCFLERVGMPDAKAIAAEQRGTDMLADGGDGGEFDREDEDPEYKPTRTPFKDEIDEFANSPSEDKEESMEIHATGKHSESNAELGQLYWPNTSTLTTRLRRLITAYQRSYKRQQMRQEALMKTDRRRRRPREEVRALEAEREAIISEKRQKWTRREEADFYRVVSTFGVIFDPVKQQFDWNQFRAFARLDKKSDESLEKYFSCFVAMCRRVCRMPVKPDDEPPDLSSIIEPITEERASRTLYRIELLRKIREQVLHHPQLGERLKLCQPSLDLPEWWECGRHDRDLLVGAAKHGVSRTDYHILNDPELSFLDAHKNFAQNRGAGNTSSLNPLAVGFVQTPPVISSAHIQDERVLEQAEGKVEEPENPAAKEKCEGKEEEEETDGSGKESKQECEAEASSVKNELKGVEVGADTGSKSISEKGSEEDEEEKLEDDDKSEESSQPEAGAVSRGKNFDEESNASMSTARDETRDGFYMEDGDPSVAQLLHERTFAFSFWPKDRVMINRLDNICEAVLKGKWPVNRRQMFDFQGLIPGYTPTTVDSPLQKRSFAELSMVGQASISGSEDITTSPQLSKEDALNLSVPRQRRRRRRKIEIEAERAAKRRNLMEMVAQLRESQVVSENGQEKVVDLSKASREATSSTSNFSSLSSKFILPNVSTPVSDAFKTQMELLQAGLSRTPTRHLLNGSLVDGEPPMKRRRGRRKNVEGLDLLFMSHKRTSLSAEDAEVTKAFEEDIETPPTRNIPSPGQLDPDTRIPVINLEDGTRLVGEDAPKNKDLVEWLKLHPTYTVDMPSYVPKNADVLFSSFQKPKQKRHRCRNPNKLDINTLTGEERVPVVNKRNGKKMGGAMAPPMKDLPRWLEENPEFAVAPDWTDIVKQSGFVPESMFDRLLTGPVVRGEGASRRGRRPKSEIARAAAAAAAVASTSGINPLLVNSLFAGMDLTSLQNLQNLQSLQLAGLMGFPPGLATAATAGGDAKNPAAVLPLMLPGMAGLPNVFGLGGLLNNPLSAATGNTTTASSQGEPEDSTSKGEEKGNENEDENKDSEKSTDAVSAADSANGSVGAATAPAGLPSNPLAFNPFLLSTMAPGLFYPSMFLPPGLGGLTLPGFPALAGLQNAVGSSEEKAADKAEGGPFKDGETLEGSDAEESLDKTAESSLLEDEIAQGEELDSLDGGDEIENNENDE

Consider “GCCCTGGAGAATCCCGGTCTGCAGGCCGCTCAATTGGTCGTAGACAGCTCTAGCACCGCTTAAACGCACGTACGCGCTGTCCCCCGCGTTTTAACCGCCAAGGGGATTACTCCCTAGTCTCCAGGCACGTGTCAGATATATACATCCTGTGCATGTATTGAACAGCGACCTTGCCGGTGCCAGTCGGATAGTGTTCCGAGCTCCCACTCTAGAGGATCCCCGGGTACC (double strand) [smFRET 601 nucleosome, 3 bp exit linker, 78 bp entry linker]”, for which the binding signal (% of nucleosomes with PIFE) is 76.5.

The record behind these values is publication doi:10.1101/2020.11.19.389429.
